Measured values as given in IntAct's records for PubMed 29039417.

B1: BBSome complex member BBS5 (Homo sapiens), Q8N3I7 (parent)
chain: MSVLDALWEDRDVRFDLSAQQMKTRPGEVLIDCLDSIEDTKGNNGDRGRLLVTNLRILWHSLALSRVNVSVGYNCILNITTRTANSKLRGQTEALYILTKCNSTRFEFIFTNLVPGSPRLFTSVMAVHRAYETSKMYRDFKLRSALIQNKQLRLLPQEHVYDKINGVWNLSSDQGNLGTFFITNVRIVWHANMNDSFNVSIPYLQIRSIKIRDSKFGLALVIESSQQSGGYVLGFKIDPVEKLQESVKEINSLHKVYSASPIFGVDYEMEEKPQPLEALTVEQIQDDVEIDSDGHTDAFVAYFADGNKQQDREPVFSEELGLAIEKLKDGFTLQGLWEVMS
partner: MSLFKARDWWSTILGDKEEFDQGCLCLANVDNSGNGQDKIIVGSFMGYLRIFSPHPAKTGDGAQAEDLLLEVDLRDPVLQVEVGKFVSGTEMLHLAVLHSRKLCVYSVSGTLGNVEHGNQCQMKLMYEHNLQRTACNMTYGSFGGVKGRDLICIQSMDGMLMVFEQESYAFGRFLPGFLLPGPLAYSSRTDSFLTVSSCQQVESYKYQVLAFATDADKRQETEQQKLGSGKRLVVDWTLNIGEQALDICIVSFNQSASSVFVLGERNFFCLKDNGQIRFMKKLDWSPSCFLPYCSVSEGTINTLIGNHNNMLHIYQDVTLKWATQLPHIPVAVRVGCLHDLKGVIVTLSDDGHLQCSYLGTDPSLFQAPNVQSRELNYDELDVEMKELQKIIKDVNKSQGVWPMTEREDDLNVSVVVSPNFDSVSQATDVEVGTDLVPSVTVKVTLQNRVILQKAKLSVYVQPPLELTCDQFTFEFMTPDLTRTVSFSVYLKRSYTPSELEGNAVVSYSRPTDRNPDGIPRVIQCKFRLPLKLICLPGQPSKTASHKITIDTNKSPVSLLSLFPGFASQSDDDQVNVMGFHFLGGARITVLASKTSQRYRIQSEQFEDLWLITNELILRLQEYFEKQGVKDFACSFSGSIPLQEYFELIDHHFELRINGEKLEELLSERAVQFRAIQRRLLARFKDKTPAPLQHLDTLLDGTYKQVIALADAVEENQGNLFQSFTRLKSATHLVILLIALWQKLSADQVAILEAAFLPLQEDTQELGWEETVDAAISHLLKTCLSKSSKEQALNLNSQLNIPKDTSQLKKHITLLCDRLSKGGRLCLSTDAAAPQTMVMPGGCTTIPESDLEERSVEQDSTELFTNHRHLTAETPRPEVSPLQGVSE
B2: Isoform 2 of Bardet-Biedl syndrome 7 protein (Homo sapiens), Q8IWZ6-2 (parent)
chain: MDLILNRMDYLQVGVTSQKTMKLIPASRHRATQKVVIGDHDGVVMCFGMKKGEAAAVFKTLPGPKIARLELGGVINTPQEKIFIAAASEIRGFTKRGKQFLSFETNLTESIKAMHISGSDLFLSASYIYNHYCDCKDQHYYLSGDKINDVICLPVERLSRITPVLACQDRVLRVLQGSDVMYAVEVPGPPTVLALHNGNGGDSGEDLLFGTSDGKLALIQITTSKPVRKWEIQNEKKRGGILCIDSFDIVGDGVKDLLVGRDDGMVEVYSFDNANEPVLRFDQMLSESVTSIQGGCVGKDSYDEIVVSTYSGWVTGLTTEPIHKESGPGEELKINQEMQNKISSLRNELEHLQYKVLQERENYQQSSQSSKAKSAVPSFGINDKFTLNKDDASYSLILEVQTAIDNVLIQSDVPIDLLDVDKNSAVVSFSSCDSESNDNFLLATYRCQADTTRLELKIRSIEGQYGTLQAYVTPRIQPKTCQVRQYHIKPLSLHQRTHFIDHDRPMNTLTLTGQFSFAEVHSWVVFCLPEVPEKPPAGECVTFYFQNTFLDTQLESTYRKGEGVFKSDNISTISILKDVLSKEATKRKINLNISYEINEVSVKHTLKLIHPKLEYQLLLAKKVQLIDALKELQIHEGNTNFLIPEYHCILEEADHLQEEYKKQPAHLERLYG
partner: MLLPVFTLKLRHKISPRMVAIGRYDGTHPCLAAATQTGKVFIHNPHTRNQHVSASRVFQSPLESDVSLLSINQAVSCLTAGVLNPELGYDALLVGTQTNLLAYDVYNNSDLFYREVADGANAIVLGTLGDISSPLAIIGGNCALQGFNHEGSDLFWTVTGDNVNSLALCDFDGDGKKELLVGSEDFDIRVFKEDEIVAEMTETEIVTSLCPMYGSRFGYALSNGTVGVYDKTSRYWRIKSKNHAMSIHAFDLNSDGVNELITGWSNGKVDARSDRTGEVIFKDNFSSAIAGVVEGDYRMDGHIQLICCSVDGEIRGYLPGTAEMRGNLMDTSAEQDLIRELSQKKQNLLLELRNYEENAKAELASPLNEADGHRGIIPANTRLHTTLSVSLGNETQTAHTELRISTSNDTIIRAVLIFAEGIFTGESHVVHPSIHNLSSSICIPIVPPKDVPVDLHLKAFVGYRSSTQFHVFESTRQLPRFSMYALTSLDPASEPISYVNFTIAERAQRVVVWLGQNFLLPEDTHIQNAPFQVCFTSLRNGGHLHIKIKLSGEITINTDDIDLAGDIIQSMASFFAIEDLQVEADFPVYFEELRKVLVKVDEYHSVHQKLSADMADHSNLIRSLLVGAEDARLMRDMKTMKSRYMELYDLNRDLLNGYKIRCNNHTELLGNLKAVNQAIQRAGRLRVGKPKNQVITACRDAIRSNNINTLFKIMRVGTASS

Variants of: B1
Details: with pthb1_human BBS9, Q3SYG4

Row | effect of a mutation on the interaction | Variant
1 | with no effect | V339K
2 | with no effect | V339E
3 | with no effect | V339A
4 | with no effect | L336A
5 | with no effect | L336E
6 | with no effect | L336K
7 | with no effect | W337A
8 | with no effect | W337E
9 | with no effect | W337K
10 | with no effect | G335A
11 | with no effect | G335K
12 | with no effect | G335E
13 | with no effect | E338A
14 | with no effect | E338K
15 | with no effect | M340E
16 | with no effect | M340K
17 | with no effect | M340A
18 | with no effect | L333K
19 | with no effect | L333E
20 | with no effect | S341E
21 | with no effect | S341A
22 | with no effect | S341K
23 | with no effect | Q334E
24 | with no effect | Q334K
25 | with no effect | Q334A

Variants of: B2
Details: with bbs2_human BBS2, Q9BXC9

Row | Variant | effect of a mutation on the interaction
26 | I397A | with no effect
27 | L357K | with no effect
28 | I334A | with no effect
29 | L454E | with no effect
30 | D501A | with no effect
31 | A443E | disrupting interaction strength
32 | L493A | with no effect
33 | L398A | with no effect
34 | L398E | with no effect
35 | P414A | with no effect
36 | L349A | with no effect
37 | D421A | with no effect
38 | M338K | with no effect
39 | K341A | with no effect
40 | K373E | with no effect
41 | S370K | with no effect
42 | L396A | with no effect
43 | E331A | with no effect
44 | I500E | with no effect
45 | L511K | with no effect
46 | L511P | disrupting interaction strength
47 | Q364E | with no effect
48 | Q353A | with no effect
49 | F440E | with no effect

Row | Variant | effect of a mutation on the interaction
50 | N382K | with no effect
51 | D412K | with no effect
52 | Q514A | with no effect
53 | L417E | with no effect
54 | Q482A | with no effect
55 | F517E | with no effect
56 | P377E | with no effect
57 | R446K | with no effect
58 | N437K | with no effect
59 | E337A | with no effect
60 | L528E | with no effect
61 | L528K | with no effect
62 | S378A | with no effect
63 | V472E | disrupting interaction strength
64 | V472M | disrupting interaction strength
65 | D433A | with no effect
66 | P474A | with no effect
67 | V407K | with no effect
68 | S428K | with no effect
69 | L491E | with no effect
70 | T497E | with no effect
71 | D391K | with no effect
72 | T512A | with no effect
73 | P478K | with no effect

Row | Variant | effect of a mutation on the interaction
74 | I404A | with no effect
75 | Y363A | with no effect
76 | Y363E | with no effect
77 | Y363K | with no effect
78 | Q368K | with no effect
79 | H502K | with no effect
80 | N340E | with no effect
81 | Q401E | with no effect
82 | Q495K | with no effect
83 | C481E | with no effect
84 | N347K | with no effect
85 | M506K | with no effect
86 | Y394K | with no effect
87 | N388A | with no effect
88 | G466D | disrupting interaction strength
89 | L441K | with no effect
90 | R453A | with no effect
91 | R360E | with no effect
92 | T480K | with no effect
93 | G463K | with no effect
94 | K422E | with no effect
95 | K422A | with no effect
96 | S430A | with no effect
97 | S430K | with no effect

Row | Variant | effect of a mutation on the interaction
98 | Q339A | with no effect
99 | S369K | with no effect
100 | T473K | with no effect
101 | G329E | with no effect
102 | E348A | with no effect
103 | S436E | with no effect
104 | F385A | with no effect
105 | I458K | disrupting interaction strength
106 | I458A | disrupting interaction strength
107 | F515A | with no effect
108 | A449K | with no effect
109 | I476E | with no effect
110 | I476K | with no effect
111 | V524E | with no effect
112 | C527K | with no effect
113 | C527E | with no effect
114 | S395K | with no effect
115 | F499S | disrupting interaction strength
116 | H494A | with no effect
117 | Y445E | with no effect
118 | T444K | with no effect
119 | D503A | with no effect

Next, values leading:

Row | effect of a mutation on the interaction | Variant
120 | with no effect | Q616K
121 | with no effect | V602K
122 | with no effect | K607A
123 | with no effect | T552K
124 | with no effect | L670A
125 | with no effect | S594A
126 | with no effect | L629K
127 | with no effect | Y646E
128 | with no effect | P644E
129 | with no effect | L608K
130 | with no effect | L642K
131 | with no effect | E562A
132 | with no effect | E562K
133 | with no effect | F545K
134 | with no effect | I597K
135 | with no effect | V600E
136 | with no effect | H666E
137 | with no effect | A628K
138 | with no effect | L625A
139 | with no effect | P532A
140 | with no effect | A584K
141 | with no effect | P535A

Row | effect of a mutation on the interaction | Variant
142 | with no effect | T557A
143 | with no effect | N590E
144 | with no effect | V623K
145 | with no effect | V531A
146 | with no effect | L619E
147 | with no effect | H604E
148 | with no effect | Q663A
149 | with no effect | Q633E
150 | with no effect | L580A
151 | with no effect | L580E
152 | with no effect | T639A
153 | with no effect | R587E
154 | with no effect | R587K
155 | with no effect | E555K
156 | with no effect | I573E
157 | with no effect | K582A
158 | with no effect | Y558K
159 | with no effect | T542E
160 | with no effect | N547K
161 | with no effect | N547E
162 | with no effect | L618K
163 | with no effect | E533K

Row | effect of a mutation on the interaction | Variant
164 | with no effect | V579K
165 | with no effect | I634K
166 | with no effect | K566E
167 | with no effect | S567K
168 | with no effect | A653K
169 | with no effect | L606A
170 | with no effect | L606E
171 | with no effect | G538K
172 | with no effect | H635E
173 | with no effect | Q624E
174 | with no effect | P611E
175 | with no effect | P611A
176 | with no effect | S601E
177 | with no effect | I609K
178 | with no effect | N598E
179 | with no effect | L554A
180 | with no effect | L554E
181 | with no effect | Q546K
182 | with no effect | L656K
183 | with no effect | S571K
184 | with no effect | G672E
